Source: patent US20040248202A1 (WISCONSIN ALUMNI RESEARCH FOUNDATION, published 2004)

Tests used:
Experiment in all cases: cell-based or functional assay
holotransducin [1] = target: holotransducin
holotransducin [2] = target: holotransducin; remark: listed apart in the source
holotransducin [3] = target: holotransducin; remark: listed apart in the source

| Binder | Activation (x100%) Over Basal Exchange (holotransducin [1]) | Specific counts (Lattice Form), 10 Minutes, GTPyS uptake (holotransducin [1]) [specific counts] | Activation (Fold increase) over BR (holotransducin [2]) [fold] | Activation (Fold increase) over Basal (holotransducin [2]) [fold] | Specific counts (Lattice Form) (at 30 min), 35S-GTPyS uptake (holotransducin [2]) [specific counts] | Activation (3C) over Basal Exchange, 100 uM GDP (holotransducin [3]) [fold] |
| --- | --- | --- | --- | --- | --- | --- |
| BR-Rhodopsin loop 3 chimera, Rhodopsin Insert Q225 to T251 (3D) (other) QAQITGRPEWIWLALGTALMGLGTLYFLVKGMGVSDPDAKKFYAITTLVPAIAFTMYLSMLLGYGLTMVPFGGEQNPIYWARYADWLFTTPLLLLDLALLVDADQGTILALVGADGIMIGTGLVGALTKVYSYRFVWWAISTAAMLYILYVLFFGFTQLVFTVKEAAAQQQESATTQKAEKEVTVASTFKVLRNVTVVLWSAYPVVWLIGSEGAGIVPLNIETLLFMVLDVSAKVGFGLILLRSRAIFGEAEAPEPSAGDGAAATSD | 1 x100% | 53400 |  |  |  |  |
| BR-Rhodopsin loop 3 chimera, Rhodopsin Insert G224 to M253 (3E) (other) QAQITGRPEWIWLALGTALMGLGTLYFLVKGMGVSDPDAKKFYAITTLVPAIAFTMYLSMLLGYGLTMVPFGGEQNPIYWARYADWLFTTPLLLLDLALLVDADQGTILALVGADGIMIGTGLVGALTKVYSYRFVWWAISTAAMLYILYVLFFGFTGQLVFTVKEAAAQQQESATTQKAEKEVTRMVASTFKVLRNVTVVLWSAYPVVWLIGSEGAGIVPLNIETLLFMVLDVSAKVGFGLILLRSRAIFGEAEAPEPSAGDGAAATSD | 1.46 x100% | 78400 |  |  |  |  |
| BR-Rhodopsin loop 3 chimera, Rhodopsin Insert Q225 to R252 (3H) (other) QAQITGRPEWIWLALGTALMGLGTLYFLVKGMGVSDPDAKKFYAITTLVPAIAFTMYLSMLLGYGLTMVPFGGEQNPIYWARYADWLFTTPLLLLDLALLVDADQGTILALVGADGIMIGTGLVGALTKVYSYRFVWWAISTAAMLYILYVLFFGFTQLVFTVKEAAAQQQESATTQKAEKEVTRVASTFKVLRNVTVVLWSAYPVVWLIGSEGAGIVPLNIETLLFMVLDVSAKVGFGLILLRSRAIFGEAEAPEPSAGDGAAATSD |  |  | 1.6 | 1.17 | 193000 |  |
| bacteriorhodopsin (other) QAQITGRPEWIWLALGTALMGLGTLYFLVKGMGVSDPDAKKFYAITTLVPAIAFTMYLSMLLGYGLTMVPFGGEQNPIYWARYADWLFTTPLLLLDLALLVDADQGTILALVGADGIMIGTGLVGALTKVYSYRFVWWAISTAAMLYILYVLFFGFTSKAESMRPEVASTFKVLRNVTVVLWSAYPVVWLIGSEGAGIVPLNIETLLFMVLDVSAKVGFGLILLRSRAIFGEAEAPEPSAGDGAAATSD |  |  |  |  | 118000 |  |
| BR-Rhodopsin loop 3 chimera, Rhodopsin Insert Y223 to R252 (3G) (other) QAQITGRPEWIWLALGTALMGLGTLYFLVKGMGVSDPDAKKFYAITTLVPAIAFTMYLSMLLGYGLTMVPFGGEQNPIYWARYADWLFTTPLLLLDLALLVDADQGTILALVGADGIMIGTGLVGALTKVYSYRFVWWAISTAAMLYILYVLFFGFTYGQLVFTVKEAAAQQQESATTQKAEKEVTRVASTFKVLRNVTVVLWSAYPVVWLIGSEGAGIVPLNIETLLFMVLDVSAKVGFGLILLRSRAIFGEAEAPEPSAGDGAAATSD |  |  | 1.55 | 1.1 | 183000 |  |
| BR-Rhodopsin loop 3 chimera, Rhodopsin Insert Y223 to M253 (3C) (other) QAQITGRPEWIWLALGTALMGLGTLYFLVKGMGVSDPDAKKFYAITTLVPAIAFTMYLSMLLGYGLTMVPFGGEQNPIYWARYADWLFTTPLLLLDLALLVDADQGTILALVGADGIMIGTGLVGALTKVYSYRFVWWAISTAAMLYILYVLFFGFTYGQLVFTVKEAAAQQQESATTQKAEKEVTRMVASTFKVLRNVTVVLWSAYPVVWLIGSEGAGIVPLNIETLLFMVLDVSAKVGFGLILLRSRAIFGEAEAPEPSAGDGAAATSD | 1.44 x100% |  | 2.22 | 1.6 | 262000 | 1.67 |
| BR-Rhodopsin loop 3 chimera, Rhodopsin Insert Y223 to T251 (3B) (other) QAQITGRPEWIWLALGTALMGLGTLYFLVKGMGVSDPDAKKFYAITTLVPAIAFTMYLSMLLGYGLTMVPFGGEQNPIYWARYADWLFTTPLLLLDLALLVDADQGTILALVGADGIMIGTGLVGALTKVYSYRFVWWAISTAAMLYILYVLFFGFTYGQLVFTVKEAAAQQQESATTQKAEKEVTVASTFKVLRNVTVVLWSAYPVVWLIGSEGAGIVPLNIETLLFMVLDVSAKVGFGLILLRSRAIFGEAEAPEPSAGDGAAATSD | 1.17 x100% | 62800 |  |  |  |  |
